The values that follow are results of earlier work, collected in PMC2912330.

Read-outs that look alike come from different tables or passages of the source.

Series [1] addresses VEGFR2 (Homo sapiens) (UniProt P35968).
The target is the same in series [2]. This is another data set of the same source.

Chain of UniProt P35968 (P35968 20-1356): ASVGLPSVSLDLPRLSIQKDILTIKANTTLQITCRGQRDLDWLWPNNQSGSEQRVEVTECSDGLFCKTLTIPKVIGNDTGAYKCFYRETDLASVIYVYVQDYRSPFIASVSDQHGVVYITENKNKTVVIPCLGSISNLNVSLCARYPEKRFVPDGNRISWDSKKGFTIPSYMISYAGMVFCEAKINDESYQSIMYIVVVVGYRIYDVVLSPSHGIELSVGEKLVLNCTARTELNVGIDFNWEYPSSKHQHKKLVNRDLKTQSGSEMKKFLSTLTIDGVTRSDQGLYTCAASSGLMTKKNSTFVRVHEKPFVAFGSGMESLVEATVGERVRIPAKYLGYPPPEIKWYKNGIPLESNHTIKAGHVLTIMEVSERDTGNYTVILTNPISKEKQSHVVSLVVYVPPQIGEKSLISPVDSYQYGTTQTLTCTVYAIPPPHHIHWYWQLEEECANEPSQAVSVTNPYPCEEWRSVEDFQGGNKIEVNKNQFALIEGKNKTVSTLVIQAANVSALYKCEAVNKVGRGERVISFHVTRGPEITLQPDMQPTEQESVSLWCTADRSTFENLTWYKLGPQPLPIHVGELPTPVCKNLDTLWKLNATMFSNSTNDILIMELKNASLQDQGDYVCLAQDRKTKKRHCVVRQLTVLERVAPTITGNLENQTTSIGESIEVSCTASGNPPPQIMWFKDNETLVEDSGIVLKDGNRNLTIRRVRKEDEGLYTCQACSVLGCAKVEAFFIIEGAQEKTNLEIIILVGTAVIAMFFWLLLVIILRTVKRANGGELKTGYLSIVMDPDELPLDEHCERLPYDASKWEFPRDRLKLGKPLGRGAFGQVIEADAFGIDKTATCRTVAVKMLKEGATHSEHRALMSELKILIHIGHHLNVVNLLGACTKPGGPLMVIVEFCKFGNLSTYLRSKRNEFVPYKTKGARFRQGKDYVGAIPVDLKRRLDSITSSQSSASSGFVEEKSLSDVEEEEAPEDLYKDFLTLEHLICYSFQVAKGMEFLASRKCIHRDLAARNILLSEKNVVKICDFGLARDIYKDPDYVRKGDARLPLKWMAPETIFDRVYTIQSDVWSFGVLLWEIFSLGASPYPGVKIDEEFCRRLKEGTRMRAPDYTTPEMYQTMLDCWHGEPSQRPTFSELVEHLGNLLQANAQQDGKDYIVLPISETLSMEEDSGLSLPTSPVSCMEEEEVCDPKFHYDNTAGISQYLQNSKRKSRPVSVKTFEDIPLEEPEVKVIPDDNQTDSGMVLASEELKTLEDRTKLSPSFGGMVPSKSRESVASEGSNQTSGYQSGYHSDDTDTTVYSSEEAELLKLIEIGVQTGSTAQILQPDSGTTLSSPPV

Turning to VEGF114 VEGF114 (from UniProt P15692), the Kd (in general, the concentration at which binding is half-saturated) in the series with VEGFR2 (Homo sapiens) [1] was 0.1 nM. Regarding VEGF165 VEGF165 (from UniProt P15692), the Kd in the series with VEGFR2 (Homo sapiens) [2] was 0.1 nM.
